Measured values published in article PMC10599630, “Human interleukin-12α and EBI3 are cytokines with anti-inflammatory functions” (Science Advances, 2023).

T1: EBI3 (purified from Expi293) (human, UniProt Q14213 21-229)
T1 construct: human EBI3, UniProt Q14213; untagged; Untagged; pHEK293 ultra expression vector 1; also called recombinant human EBI3; source: Expi293, co-transfected with IL-27α^L162C,His
T1 sequence (looked up): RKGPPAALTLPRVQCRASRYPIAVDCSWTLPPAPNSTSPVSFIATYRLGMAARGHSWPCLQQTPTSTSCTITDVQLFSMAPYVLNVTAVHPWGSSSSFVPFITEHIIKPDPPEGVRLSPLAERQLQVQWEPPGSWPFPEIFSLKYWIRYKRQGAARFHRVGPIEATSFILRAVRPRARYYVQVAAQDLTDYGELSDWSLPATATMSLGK

T2: recombinant human IL-12β^C199S (previously purified) (human, UniProt P29460 23-328, C199S)
T2 construct: human interleukin-12 subunit beta (IL-12β/p40), UniProt P29460, with C199S; it may be the same construct as m7; also called p40 C199S; source: previously purified in our laboratory
T2 sequence (looked up): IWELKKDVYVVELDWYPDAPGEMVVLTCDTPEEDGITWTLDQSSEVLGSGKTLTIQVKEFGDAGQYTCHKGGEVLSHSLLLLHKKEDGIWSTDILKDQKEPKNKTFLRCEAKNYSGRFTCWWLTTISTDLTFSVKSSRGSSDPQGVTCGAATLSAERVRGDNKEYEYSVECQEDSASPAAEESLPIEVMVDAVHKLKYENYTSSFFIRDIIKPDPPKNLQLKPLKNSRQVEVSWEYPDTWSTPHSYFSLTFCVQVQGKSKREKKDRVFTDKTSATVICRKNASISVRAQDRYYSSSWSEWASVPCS


How the values were obtained:
[1] = molecular target: T1, EBI3 (purified from Expi293); experiment: pull-down; called co-IP with purified proteins: 1 μg of one protein and an equimolar amount of the other in 200 μl PBS, 1 hour at room temperature; Ni-nitrilotriacetic acid beads 2 hours at 4°C; wash PBS with 20 mM imidazole, elution 500 mM imidazole; conditions: both partners purified
[2] = molecular target: T2, recombinant human IL-12β^C199S …; experiment: as above; conditions: both partners purified

binding result [1] | binding result [2] | Binder
binds | – | murine IL-27α (natural protein, UniProt Q8K3I6 29-234, looked up, mouse interleukin-27 subunit alpha (IL-27α/p28), bought recombinant protein; also called mIL-27α; source: bought: R&D Systems, 7430-ML-010) FPTDPLSLQELRREFTVSLYLARKLLSEVQGYVHSFAESRLPGVNLDLLPLGYHLPNVSLTFQAWHHLSDSERLCFLATTLRPFPAMLGGLGTQGTWTSSEREQLWAMRLDLRDLHRHLRFQVLAAGFKCSKEEEDKEEEEEEEEEEKKLPLGALGGPNQVSSQVSWPQLLYTYQLLHSLELVLSRAVRDLLLLSLPRRPGSAWDS
– | binds | IL-12α^C96S,His (natural protein, human, UniProt P29459 23-219, looked up, human interleukin-12 subunit alpha (IL-12α/p35), UniProt P29459, with C96S (the cysteine of the interchain disulfide bond of IL-12); C-terminal TEV cleavage site followed by a GG-linker and His-tag; pcDNA3.4TOPO vector; also called IL-12αC96S with His-tag; source: ExpiCHO, co-transfected with IL-12β^C199S; not shown: His-tag, C-terminal, kept) RNLPVATPDPGMFPCLHHSQNLLRAVSNMLQKARQTLEFYPCTSEEIDHEDITKDKTSTVEACLPLELTKNESSLNSRETSFITNGSCLASRKTSFMMALCLSSIYEDLKMYQVEFKTMNAKLLMDPKRQIFLDQNMLAVIDELMQALNFNSETVPQKSSLEEPDFYKTKIKLCILLHAFRIRAVTIDRVMSYLNAS
